Broadly, the Kd is a measure of binding affinity in units of concentration.

Assay [1] concerns the target HLA-B*35:01. Nature of the assay: IEDB peptide-MHC binding, purified MHC/competitive/radioactivity; filed as Kd, often an IC50 or EC50 that approximates it; ≥ and ≤ were set here for values at or beyond the usual limits of such assays. As to conditions: source organism: Dengue virus 1 Singapore/S275/1990.
The target of assay [2] is HLA-B*53:01. Described as above.
Assay [3] concerns the target HLA-B*58:01. The assay is described as above.
The target in assay [4] is HLA-A*02:03. As to the kind of experiment: IEDB peptide-MHC binding, purified MHC/direct/fluorescence; filed as Kd, often an IC50 or EC50 that approximates it; ≥ and ≤ were set here for values at or beyond the usual limits of such assays.
Assay [5] concerns the target HLA-A*02:11. Described as above.
The target of assay [6] is HLA-A*02:12. Described as above.
In assay [7] the target is HLA-A*02:16. The description is as above.
Assay [8] addresses HLA-A*02:19. The assay is described as above.
In assay [9] the target is HLA-A*24:03. The description is as above.
In assay [10] the target is HLA-A*68:02. The assay is described as above.
In assay [11] the target is HLA-A*02:01. As to the kind of experiment: IEDB peptide-MHC binding, purified MHC/competitive/fluorescence; filed as Kd, often an IC50 or EC50 that approximates it; ≥ and ≤ were set here for values at or beyond the usual limits of such assays.
The target in assay [12] is HLA-A*03:01. Described as above. The settings on record: source organism: Four Corners hantavirus.
The target in assay [13] is HLA-A*26:01. Described as above.
Assay [14] deals with HLA-A*69:01. Described as above.
Assay [15] deals with HLA-B*15:17. The assay is described as above.
The target in assay [16] is HLA-B*27:03. The description is as above.
In assay [17] the target is HLA-B*39:01. The assay is described as above.
In assay [18] the target is HLA-B*46:01. The assay is described as above.
In assay [19] the target is HLA-B*51:01. The assay is described as above.
The target in assay [20] is HLA-B*57:01. Described as above.
For assay [21], the target named is HLA-B*57:01. As to the kind of experiment: IEDB peptide-MHC binding, purified MHC/competitive/radioactivity; filed as Kd, often an IC50 or EC50 that approximates it; ≥ and ≤ were set here for values at or beyond the usual limits of such assays.
Assay [22] addresses HLA-B*15:17. Nature of the assay: IEDB peptide-MHC binding, purified MHC/direct/fluorescence; filed as Kd, often an IC50 or EC50 that approximates it; ≥ and ≤ were set here for values at or beyond the usual limits of such assays.
Assay [23] concerns the target HLA-B*57:01. The description is as above.
Assay [24] has as its target HLA-B*58:01. The assay is described as above.
Assay [25] has as its target HLA-A*01:01. As to the kind of experiment: IEDB peptide-MHC binding, purified MHC/competitive/radioactivity; filed as Kd, often an IC50 or EC50 that approximates it; ≥ and ≤ were set here for values at or beyond the usual limits of such assays. The settings on record: source organism: Dengue virus 1 Brazil/97-11/1997.
The target in assay [26] is HLA-A*03:01. As to the kind of experiment: IEDB peptide-MHC binding, purified MHC/direct/fluorescence; filed as Kd, often an IC50 or EC50 that approximates it; ≥ and ≤ were set here for values at or beyond the usual limits of such assays.
The target of assay [27] is HLA-A*26:01. The assay is described as above.
In assay [28] the target is HLA-B*18:01. As to the kind of experiment: IEDB peptide-MHC binding, purified MHC/competitive/fluorescence; filed as Kd, often an IC50 or EC50 that approximates it; ≥ and ≤ were set here for values at or beyond the usual limits of such assays.
Assay [29] addresses HLA-B*15:01. The assay is described as above. The settings on record: source organism: Reston ebolavirus.
Assay [30] addresses HLA-A*03:01. Nature of the assay: IEDB peptide-MHC binding, purified MHC/competitive/radioactivity; filed as Kd, often an IC50 or EC50 that approximates it; ≥ and ≤ were set here for values at or beyond the usual limits of such assays. The settings on record: source organism: Dengue virus 1 Singapore/S275/1990.
The target in assay [31] is HLA-A*11:01. Described as above. The settings on record: source organism: Dengue virus 1 Singapore/S275/1990.
[32] abbreviates: source organism: Dengue virus 1 Singapore/S275/1990.
Setting [33] is: source organism: Limestone Canyon virus.
Where [34] appears, read: source organism: Four Corners hantavirus.
[35] abbreviates: source organism: Dengue virus 4 Philippines/H241/1956.
Where [36] appears, read: source organism: Listeria monocytogenes FSL N3-165.
Setting [37] is: source organism: Dengue virus 3 Martinique/1243/1999.
[38] abbreviates: source organism: Dengue virus 1 Brazil/97-11/1997.
[39] abbreviates: source organism: Dengue virus 3 Sri Lanka/1266/2000.
The mark [40] stands for this setting: source organism: Araucaria virus.
The mark [41] stands for this setting: source organism: Reston ebolavirus.
Where [42] appears, read: source organism: Escherichia coli O157:H7.
The mark [43] stands for this setting: source organism: Orthohantavirus andesense.

Bounds are passed on as bounds.

For MASSVLLWM, the Kd amounted to 0.0566 µM in [1], 0.00061 µM in assay [2] (setting [32]) and 0.0003 µM in assay [3] (setting [32]).
Take KLKKKSAFY: the Kd in assay [4] (setting [33]), in assay [5] (setting [33]), in [6] (setting [33]), in assay [7] (setting [33]), in assay [8] (setting [33]) and in assay [9] (setting [33]) was at least 20 µM each time. Besides, the Kd in assay [10] (setting [33]) is at least 20 µM; in assay [11] (setting [34]), at least 20 µM; in [12] it was 0.0451 µM; in assay [13] (setting [34]), at least 20 µM; in assay [14] (setting [34]), at least 20 µM; in assay [15] (setting [34]) it was at least 20 µM. The Kd in assay [16] (setting [34]), in assay [17] (setting [34]), in assay [18] (setting [34]), in assay [19] (setting [34]) and in assay [20] (setting [34]) was at least 20 µM in each case.
With AVFQEEQGW, the Kd in [21] (setting [35]) came to 0.034 µM.
For the sequence WTRPRYIEI, the results for the Kd in [22] (source organism: Listeria monocytogenes), in assay [23] (setting [36]) and in assay [24] (setting [36]) were 0.27 µM, at least 20 µM and 0.429 µM, respectively.
Consider IASSGMLWMA, for which the dissociation constant (Kd) in [21] (setting [37]) came to 10.4 µM; in assay [3] (setting [37]), 1.02 µM.
As to YATQTVGPW, the results for the Kd in assay [2] (setting [35]), in [21] (setting [35]) and in [3] (setting [35]) were 0.0279 µM, 0.605 µM and 0.0168 µM, respectively.
For VSSWEEVPYL, the Kd came out at 12.4 µM in assay [25], 0.384 µM in assay [21] (setting [38]) and 0.256 µM in [3] (setting [38]).
Turning to LSSRAKLALD, the figures for the Kd in assay [21] (setting [35]) and in assay [3] (setting [35]) were 7.42 µM and 0.362 µM, respectively.
Consider AAVEDEEFW, for which the Kd was 0.0107 µM in assay [2] (setting [39]), 1.1 µM in [21] (setting [39]) and 0.00441 µM in assay [3] (setting [39]).
PASAWTLYAV: in assay [21] (source organism: Dengue virus 2 Jamaica/1409/1983), the equilibrium dissociation constant (Kd) was 1.11 µM.
As for GVPELGAFF, the Kd in [4] (setting [40]), in [5] (setting [40]), in assay [6] (setting [40]), in assay [7] (setting [40]), in [8] (setting [40]) and in assay [26] (setting [40]) was at least 20 µM each time. Besides, the Kd in [27] (source organism: Itapua hantavirus) is 0.207 µM; in [11] (setting [40]), at least 20 µM; in assay [14] (setting [40]) it was at least 20 µM; in [15] (setting [40]) it was at least 20 µM; in assay [28] (setting [40]) it was at least 20 µM; in [16] (setting [40]) it was at least 20 µM. Moreover, the Kd in assay [17] (setting [40]), in [18] (setting [40]), in [19] (setting [40]) and in [20] (setting [40]) was at least 20 µM throughout.
On to LTSREVLLLT, for which the values for the Kd in [21] (setting [38]) and in assay [3] (setting [38]) were 0.712 µM and 0.409 µM, respectively.
On to WFQRIPLQW, for which the equilibrium dissociation constant (Kd) in [4] (setting [41]), in [5] (setting [41]), in assay [6] (setting [41]), in [7] (setting [41]), in assay [8] (setting [41]) and in assay [26] (setting [41]) was at least 20 µM in each case. For the same sequence, the Kd in [9] (source organism: Tai Forest virus - Cote d'Ivoire, Cote d'Ivoire, 1994) is 0.0003 µM; in assay [10] (setting [41]) it was at least 20 µM; in assay [11] (setting [41]) it was at least 20 µM; in assay [13] (setting [41]) it was at least 20 µM; in assay [14] (setting [41]) it was at least 20 µM; in assay [29], at least 20 µM. Also, the Kd in [15] (setting [41]), in [28] (setting [41]), in assay [16] (setting [41]), in assay [17] (setting [41]), in assay [18] (setting [41]) and in [19] (setting [41]) was at least 20 µM in each case. This sequence also displayed a Kd in assay [20] (setting [41]) of at least 20 µM.
Regarding PTSYLDVDLH, in assay [21] (setting [37]), the Kd is at least 37.4 µM.
In the case of ILIGFLVLW, the Kd in assay [21] (setting [35]) is 1.25 µM; in assay [3] (setting [35]), 0.403 µM.
For the sequence KSWPAAIDW, the figures for the Kd in assay [22] (setting [42]), in assay [23] (setting [42]) and in assay [24] (setting [42]) were 0.0013 µM, 0.032 µM and 0.0015 µM, respectively.
Regarding LLIMGQLTW, the Kd in assay [2] (setting [38]) was 0.342 µM; in [3] (setting [38]), 0.0111 µM.
Take IARISALGF: the results for the Kd in assay [22] (source organism: Brucella suis), in [23] (source organism: Brucella suis 1330) and in [24] (source organism: Brucella suis) were 0.0036 µM, 0.088 µM and 14 µM, respectively.
In the case of AVEDFLAFF, the Kd in assay [4] (setting [43]), in assay [5] (setting [43]), in assay [6] (setting [43]), in assay [7] (setting [43]), in assay [8] (setting [43]) and in assay [26] (setting [43]) was at least 20 µM in each case. Further, the Kd was 1.39 µM in [27] (setting [43]); at least 20 µM in assay [10] (setting [43]); at least 20 µM in assay [11] (setting [43]); at least 20 µM in [14] (setting [43]); at least 20 µM in assay [28] (setting [43]); at least 20 µM in [16] (setting [43]). The dissociation constant (Kd) in [17] (setting [43]), in [18] (setting [43]), in [19] (setting [43]) and in [20] (setting [43]) was at least 20 µM in each case.
For ASSMVNGVVK, the Kd came out at 0.325 µM in assay [30], 0.0304 µM in assay [31] and 2.79 µM in assay [3] (setting [32]).
